{"source": "paper PMC10434076", "target": "Campylobacter jejuni resistance enhancing CmeB (RE-CmeB) multidrug efflux pump (C. jejuni)", "experiment": "cryo-EM structure; single-particle cryo-EM of 20 uM RE-CmeB in lipidic nanodiscs (MSP 1E3D1, E. coli total extract lipid; 20 mM Tris-HCl pH 7.5, 100 mM NaCl); apo, with fortuitous hydrolyzed ampicillin, or incubated with 1 mM Cip, Ery or Chl for 2 h on ice", "data": [{"substance": "Campylobacter jejuni resistance enhancing CmeB (RE-CmeB) multidrug efflux pump (natural protein)", "values": [{"measurement": "stoichiometry N", "result": 3}]}]}
